A short description of assay [1]: Ca2+-dependence of the hydrolysis of phosphatidylcholine vesicles. The assay is classed as biochemical. As to the method:
(§1) FIGS. 4A-4C represent the enzymatic properties of recombinant hGIIF sPLA2. […] Full experimental details are provided in materials and methods.
(§2) The Ca^2+ and pH dependencies of hGIIF sPLA2 were measured with POPC vesicles containing 1-palmitoyl-2-[1-^3H]palmitoyl-sn-glycero-3-phospho9choline vesicles and POPG vesicles containing 1-palmitoyl-2-[1-^3H]palmitoyl-sn-glycero-3-phosphoglyceril, respectively. Substrate specificity studies were carried out using a slightly modified assay with the fatty acid binding protein [7]. Reaction mixtures contained 30 μM POPC, POPG, or POPS (1-Palmitoyl-2-Oleoyl-sn-Glcero-3-phosphoserine) large […] vesicles (0.1 μm, prepared by extrusion as described [222[) in Hanks' balanced salt solution with 1 mM Ca^2+, 1 mM Mg^2+, 9.7 μg fatty acid binding protein, and 1 μm 11-dansyl-undecanoic acid at 37° C. Assays were calibrated by adding a known amount of oleic acid to the complete assay in the absence of enzyme.

Assay [2] can be described thus: Substrate specificity, fatty acid binding protein assay on phospholipid vesicles. Format: biochemical. To be noted: 30 μM vesicles, 1 mM Ca2+, 37° C. As to the method: as §1, §2
Assay [3] is described as follows: pH-dependence of the hydrolysis of phosphatidylglycerol vesicles. The assay is classed as biochemical. As to the method: as §1, §2
The conditions of assay [4]: from references [8], [16]; cited from earlier work.

The text below walks through data of patent publication US6812017B2, “Mammalian secreted group IIF phospholipase A2” (Centre National de la Recherche Scientique - CNRS, priority 2000, dated 2004).

B1: hGIIF sPLA2: novel human secreted group IIF phospholipase A2, recombinantly expressed in E. coli; 168 amino acid sequence, mature protein 148 residues (protein)
chain: MKKFFTVAILAGSVLSTAHGSLLNLKAMVEAVTGRSAILSFVGYGCYCGLGGRGQPKDEVDWCCHAHDCCYQELFDQGCHPYVDHYDHTIENNTEIVCSDLNKTECDKQTCMCDKNMVLCLMNQTYREEYRGFLNVYCQGPTPNCSIYEPPPEEVTCSHQSPAPPAPP
For B1, the “apparent KCa2+” value in assay [1] (PC vesicles as substrate, hyperbolic dependence on Ca2+ concentration) turned out to be 140 ± 40 µM. Further, in assay [1] (phospholipid vesicles), the “Ca2+ dependence of hydrolysis of phospholipid vesicles” value is on record as “strictly Ca^2+ dependent”. For the same molecule, in assay [2], the “rate of POPC hydrolysis relative to rate of POPG” value was approximately 6%; the “relative rates for the hydrolysis of POPG, POPS, and POPC vesicles” value is “highest with anionic POPG vesicles”. Besides, the “rate of hydrolysis of phosphatidylglycerol vesicles versus pH” value in assay [3] is reported as “increases with pH in the range 5-7”.

B2: hGIIA sPLA2: human group IIA secreted phospholipase A2 (protein)
chain: MKTLLLLAVIMIFGLLQAHGNLVNFHRMIKLTTGKEAALSYGFYGCHCGVGGRGSPKDATDRCCVTHDCCYKRLEKRGCGTKFLSYKFSNSGSRITCAKQDSCRSQLCECDKAAATCFARNKTTYNKKYQYYSNKHCRGSTPRC
Turning to B2, in assay [4], the “preference for POPG versus POPC vesicles” value is recorded as “greater than 10^5 fold”.

B3: hGV: human group V secreted phospholipase A2 (protein)
chain: MKGLLPLAWFLACSVPAVQGGLLDLKSMIEKVTGKNALTNYGFYGCYCGWGGRGTPKDGTDWCCWAHDHCYGRLEEKGCNIRTQSYKYRFAWGVVTCEPGPFCHVNLCACDRKLVYCLKRNLRSYNPQYQYFPNILCS
As to B3, the “preference for POPG versus POPC vesicles” value in assay [4] was 3 fold.

B4: hGX: human group X secreted phospholipase A2 (protein)
chain: MLLLLLPSLLLLLLLPGPGSGEASRILRVHRRGILELAGTVGCVGPRTPIAYMKYGCFCGLGGHGQPRDAIDWCCHGHDCCYTRAEEAGCSPKTERYSWQCVNQSVLCGPAENKCQELLCKCDQEIANCLAQTEYNLKYLFYPQFLCEPDSPKCD
Take B4: in assay [4], the “preference for POPG versus POPC vesicles” value is 10 fold.
